# Values of other authors in publication PMC2678197 (Chemistry & biology, 2009).
# Target: eotaxin (Homo sapiens, UniProt P51671)
# Details: read-out: equilibrium dissociation constant (Kd); binding to eotaxin; ref [26]
# Chain of eotaxin (P51671 24-97): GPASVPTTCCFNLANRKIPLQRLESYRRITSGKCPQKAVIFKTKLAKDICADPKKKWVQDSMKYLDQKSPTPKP
substance,measurement,value
35-residue non-sulfated peptide: 35-residue non-sulfated peptide corresponding to the complete N-terminal region of CCR3 (MTTSLDTVETFGTTSYYDDVGLLCEKADTRALMAQ; unsulfated; the limits 1-35 are inferred from '35-residue' and 'complete N-terminal region'),Kd,80 ± 38 µM
